Assay results taken from paper PMC9299759, “FBXW24 controls female meiotic prophase progression by regulating SYCP3 ubiquitination” (Clinical and Translational Medicine, 2022).

Molecular target: T1, FBXW24‐EGFP‐Strep II protein, purified from Sf9 (mouse, UniProt E9PXM9 1-466)
T1 construct: FBXW24 (F-box and WD-40 domain protein 24), mouse, gene ID 382106; also called FBXW24‐StrepII; in vitro purified FBXW24; source: Sf9 (Bac-to-bac baculovirus), purified (Ni-NTA); not shown: EGFP, C-terminal, kept; Strep II, C-terminal, kept
T1 sequence (looked up): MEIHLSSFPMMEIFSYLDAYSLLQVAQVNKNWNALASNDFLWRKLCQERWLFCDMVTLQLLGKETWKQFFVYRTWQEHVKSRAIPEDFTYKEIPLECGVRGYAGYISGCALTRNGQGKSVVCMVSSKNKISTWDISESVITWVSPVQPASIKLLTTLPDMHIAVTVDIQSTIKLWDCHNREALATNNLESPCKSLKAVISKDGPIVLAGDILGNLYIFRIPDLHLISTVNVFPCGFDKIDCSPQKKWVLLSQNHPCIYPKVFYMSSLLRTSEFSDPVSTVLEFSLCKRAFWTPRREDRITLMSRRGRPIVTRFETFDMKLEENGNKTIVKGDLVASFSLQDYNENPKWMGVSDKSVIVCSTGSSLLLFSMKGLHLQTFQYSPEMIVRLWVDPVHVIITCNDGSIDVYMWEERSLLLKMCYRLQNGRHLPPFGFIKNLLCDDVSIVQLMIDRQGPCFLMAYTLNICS
Experiment: co-IP; co-IP between in vitro purified proteins; 1 μg SYCP3‐Flag protein and/or FBXW24‐StrepII protein in each reaction
Settings: both partners purified

B1: SYCP3‐TagRFP‐Flag protein, purified from Sf9 (natural protein, mouse, UniProt P70281 1-254, looked up)
chain: MLRGCGDSDSSPEPLSKHLKMVPGGRKHSGKSGKPPLVDQPKKAFDFEKDDKDLSGSEEDVADEKAPVIDKHGKKRSAGIIEDVGGEVQNMLEKFGADINKALLAKRKRIEMYTKASFKASNQKIEQIWKTQQEEIQKLNNEYSQQFMNVLQQWELDIQKFEEQGEKLSNLFRQQQKIFQQSRIVQSQRMFAMKQIHEQFIKSLEDVEKNNDNLFTGTQSELKKEMAMLQKKVMMETQQQEMANVRKSLQSMLF
notes: SYCP3, synaptonemal complex lateral element protein; The purified protein ran as several bands, and the upper bands carried ubiquitin; also called SYCP3‐Flag; in vitro purified SYCP3; source: Sf9 (Bac-to-bac baculovirus), purified (Ni-NTA); not shown: TagRFP, C-terminal, kept; Flag, C-terminal, kept
binding result: binds
